Substrate in the data set: CC(=O)SCCNC(=O)CCNC(=O)[C@H](O)C(C)(C)COP(=O)(O)OP(=O)(O)OC[C@H]1O[C@@H](n2cnc3c(N)ncnc32)[C@H](O)[C@@H]1OP(=O)(O)O
As to the kind of experiment: CPM fluorescence detection of released CoA-SH, initial rates. It is filed as biochemical, Escherichia coli. Conditions: malonyl-ACP 80 µM (about 40% pure; table note 75 µM), 20 mM phosphate, 50 mM KCl, 1 mg/ml BSA, pH 7.0, 30°C. The source says: CPM fluorescence detection of released CoA-SH, initial rates on FabH (β-ketoacyl-ACP synthase III; keto-acylsynthase III)

B1: FabH (β-ketoacyl-ACP synthase III; keto-acylsynthase III) (Escherichia coli K-12) (protein)
chain: MYTKIIGTGSYLPEQVRTNADLEKMVDTSDEWIVTRTGIRERHIAAPNETVSTMGFEAATRAIEMAGIEKDQIGLIVVATTSATHAFPSAACQIQSMLGIKGCPAFDVAAACAGFTYALSVADQYVKSGAVKYALVVGSDVLARTCDPTDRGTIIIFGDGAGAAVLAASEEPGIISTHLHADGSYGELLTLPNADRVNPENSIHLTMAGNEVFKVAVTELAHIVDETLAANNLDRSQLDWLVPHQANLRIISATAKKLGMSMDNVVVTLDRHGNTSAASVPCALDEAVRDGRIKPGQLVLLEAFGGGFTWGSALVRF
notes: purified by anion exchange, blue sepharose and S200 columns, as described previously; no tag mentioned
One may read the Km as the substrate concentration at which the rate is half of its maximum. As for B1, the Km was 60 ± 20 µM.

The values above are taken from PMC5023282, “A rapid fluorometric assay for the S-malonyltransacylase FabD and other sulfhydryl utilizing enzymes” (Journal of Biological Methods, 2016).
